Target: T1, HER2 (human, UniProt P04626 23-652)
T1 construct: The ELISA is not described; also called ERBB2; CD340
Test: ELISA, format not described
Set-up: unit not given here

| Binder | ELISA_avg |
| --- | --- |
| HER2-binding D domain SEQ ID NO: 815 (designed binder) MGSWWEFKVRLSAIQYRLYALGGSEAELAAFEKEIAAFESELQAYKGKGNPEVEALREQAALIRTILQAYRHN | 5.17 |
| HER2-binding D domain SEQ ID NO: 816 (designed binder) MGSWWEFHIRLHAINYRLAALGGSEAELAAFEKEIAAFESELQAYKGKGNPEVEALRELAAKIRGDLQAYRHN | 11.9 |
| HER2-binding D domain SEQ ID NO: 824 (designed binder) MGSWIEFWVRLNAILYRLYALGGSEAELAAFEKEIAAFESELQAYKGKGNPEVEALRDSAAEIRRWLQAYRHN | 3.91 |
| HER2-binding D domain SEQ ID NO: 818 (designed binder) MGSWWEFKIRLYAIEYRLNALGGSEAELAAFEKEIAAFESELQAYKGKGNPEVEALRAKAAQIRYNLQAYRHN | 4.49 |
| HER2-binding D domain SEQ ID NO: 817 (designed binder) MGSWWEFQVRLRAIQYRLNALGGSEAELAAFEKEIAAFESELQAYKGKGNPEVEYLRGLAAQIRFDLQAYRHN | 14.4 |
| HER2-binding D domain SEQ ID NO: 822 (designed binder) MGSWWEFKVRLRAIEYRLSALGGSEAELAAFEKEIAAFESELQAYKGKGNPEVEELRVLAASIRIHLQAYRHN | 10.1 |
| HER2-binding D domain SEQ ID NO: 811 (designed binder) MGSWWGFKVNLAWIKWKLEALGGSEAELAYFELWIANFEHSLQEYKGKGNPEVEALRKEAAAIRDELQAYRHN | 8.69 |
| HER2-binding D domain SEQ ID NO: 814 (designed binder, also called eb04) MGSWKTFKIELAGIKLELEALGGSEAELAGFENAIAQFESSLQYYKGKGNPEVEALRKEAAAIRDELQAYRHN | 4.95 |
| HER2-binding D domain SEQ ID NO: 823 (designed binder) MGSWSEFWFRLHAILYRLQALGGSEAELAAFEKEIAAFESELQAYKGKGNPEVETLRDAAAEIRVALQAYRHN | 14.8 |
| HER2-binding D domain SEQ ID NO: 810 (designed binder, also called eb05) MGSWHEFLRRLLAIEMRLYALGGSEAELAAFEKEIAAFESELQAYKGKGNPEVEHLRVRAASIRQMLQAYRHN | 8.15 |
| HER2-binding D domain SEQ ID NO: 809 (designed binder, also called eb08) MGSWYEFRWRLHAIWLRLGALGGSEAELAAFEKEIAAFESELQAYKGKGNPEVEWLRQDAAQIRYILQAYRHN | 7.18 |
| HER2-binding D domain SEQ ID NO: 813 (designed binder) MGSWLVFKDELAGIKNYLEALGGSEAELATFEQDIAWFEQWLQNYKGKGNPEVEALRKEAAAIRDELQAYRHN | 3.28 |
| HER2-binding D domain SEQ ID NO: 828 (designed binder) MGSWWEFHVRLRAIEYRLEALGGSEAELAAFEKEIAAFESELQAYKGKGNPEVEQLRLIAANIRHLLQAYRHN | 5.48 |
| HER2-binding D domain SEQ ID NO: 831 (designed binder) MGSWWEFQVRLAAIEYRLKALGGSEAELAAFEKEIAAFESELQAYKGKGNPEVENLRQLAAHIRSVLQAYRHN | 6.33 |
| HER2-binding D domain SEQ ID NO: 812 (designed binder) MGSWVNFKTHLARIKVHLEALGGSEAELALFEHDIANFEQVLQQYKGKGNPEVEALRKEAAAIRDELQAYRHN | 7.91 |
| HER2-binding D domain SEQ ID NO: 825 (designed binder) MGSWVEFWIRLNAIKYRLLALGGSEAELAAFEKEIAAFESELQAYKGKGNPEVEKLRQDAADIRELLQAYRHN | 10.6 |
| HER2-binding D domain SEQ ID NO: 826 (designed binder) MGSWTEFWWRLSAIVYRLNALGGSEAELAAFEKEIAAFESELQAYKGKGNPEVEELRDMAADIRSLLQAYRHN | 5.76 |
| HER2-binding D domain SEQ ID NO: 819 (designed binder) MGSWFEFNIRLHAIEYRLKALGGSEAELAAFEKEIAAFESELQAYKGKGNPEVEELRNYAASIRKLLQAYRHN | 7.86 |
| HER2-binding D domain SEQ ID NO: 833 (designed binder, also called eb09) MGSWWEFNIRLHAIDYRLKALGGSEAELAAFEKEIAAFESELQAYKGKGNPEVELLREKAAQIRAQLQAYRHN | 9.75 |
| HER2-binding D domain SEQ ID NO: 820 (designed binder) MGSWFEFEIRLRAIEYRLSALGGSEAELAAFEKEIAAFESELQAYKGKGNPEVEKLRELAAEIRYALQAYRHN | 7.75 |
| HER2-binding D domain SEQ ID NO: 821 (designed binder) MGSWFEFKIRLYAIQYRLSALGGSEAELAAFEKEIAAFESELQAYKGKGNPEVEELRNLAAEIRHSLQAYRHN | 13.1 |

Further lines, results first:

| ELISA_avg | Binder |
| --- | --- |
| 6.73 | HER2-binding D domain SEQ ID NO: 838 (designed binder) MGSWWEFNVRLSAIRYRLLALGGSEAELAAFEKEIAAFESELQAYKGKGNPEVEDLRASAAQIRAMLQAYRHN |
| 3.08 | HER2-binding D domain SEQ ID NO: 839 (designed binder, also called eb10) MGSWWEFNMRLSAIKYRLYALGGSEAELAAFEKEIAAFESELQAYKGKGNPEVEILRRLAADIRERLQAYRHN |
| 5.35 | HER2-binding D domain SEQ ID NO: 835 (designed binder) MGSWYEFDIRLEAIKYRLSALGGSEAELAAFEKEIAAFESELQAYKGKGNPEVEYLRKKAAVIRSMLQAYRHN |
| 8.04 | HER2-binding D domain SEQ ID NO: 836 (designed binder) MGSWWEFRIRLEAIWYRLHALGGSEAELAAFEKEIAAFESELQAYKGKGNPEVEDLRIFAANIRSKLQAYRHN |
| 5.23 | HER2-binding D domain SEQ ID NO: 837 (designed binder) MGSWWEFNVRLQAIKYRLSALGGSEAELAAFEKEIAAFESELQAYKGKGNPEVEDLRKTAAHIRWQLQAYRHN |
| 14.8 | HER2-binding D domain SEQ ID NO: 840 (designed binder) MGSWWEFHIRLRAIKYRLYALGGSEAELAAFEKEIAAFESELQAYKGKGNPEVEDLRILAAEIRAQLQAYRHN |
| 4.56 | HER2-binding D domain SEQ ID NO: 829 (designed binder) MGSWWEFHVRLKAIEYRLLALGGSEAELAAFEKEIAAFESELQAYKGKGNPEVEDLRYIAANIRQLLQAYRHN |
| 9.61 | HER2-binding D domain SEQ ID NO: 832 (designed binder) MGSWWEFQVRLSAIEYRLTALGGSEAELAAFEKEIAAFESELQAYKGKGNPEVEELRQKAARIRSLLQAYRHN |
| 5.1 | HER2-binding D domain SEQ ID NO: 827 (designed binder) MGSWWEFYLRLRAISYRLQALGGSEAELAAFEKEIAAFESELQAYKGKGNPEVEGLRQDAAEIRKLLQAYRHN |
| 6.82 | HER2-binding D domain SEQ ID NO: 834 (designed binder, also called eb06) MGSWWEFRVRLEAIDYRLKALGGSEAELAAFEKEIAAFESELQAYKGKGNPEVEYLRMKAATIRAILQAYRHN |
